Data on 167 variants can be found in the RNAGym collection of RNA variant scans (doi:10.1073/pnas.2313332121).

B1: TPR t1 (parent)
chain: GACCAAUCUGCCCUCAGAGCUCGAGAACAUCUUCGGAUGCAGAGGAGGCAGGCUUCGGUGGCGCGAUAGCGCCAACGUCCUCAACCUCCAAUGCAUCCCACCACAUGAUGAUGCCUGAAGAGCCUUGGUUUUUUG

In this data set the parent is B1. The experiment in a line: polymerase ribozyme fitness, log enrichment relative to wild type (log ratio); higher = more active; in vitro selection for triplet polymerase activity. In short, it runs like this:
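Mutant libraries of both subunits of a heterodimeric triplet polymerase ribozyme were PCR-built, transcribed, and selected once in triplicate, with frozen incubation at −7 °C and capture of gel-excised extended constructs on streptavidin beads before RT-PCR. Illumina sequencing of input and output libraries was filtered to genotypes with ≥10 input reads and ≥1 read per output. Fitness is the logarithm of genotype enrichment over wild-type enrichment, using inverse-variance-weighted replicate averages. The logarithm is base 2.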
As for U78A C97A, the “polymerase ribozyme fitness (log ratio)” value was -4.8.
Turning to A18C G48A A119G G120A U126A, the “polymerase ribozyme fitness (log ratio)” value was -3.21.
On to A6C U78A, for which the “polymerase ribozyme fitness (log ratio)” value is 0.00944.
The value for G71U U130A was 0.232; that for A29U C79A was -3.06; that for U55G G58C C79A was -3.4.
For G47U A91C G113A U130A, the “polymerase ribozyme fitness (log ratio)” value is -3.79.
With C62G A83U U96A, the “polymerase ribozyme fitness (log ratio)” value is -4.56.
The result for G42A U87A C89U reads -2.26.
The result for C22A A29G reads -4.8; that for C4A G69A, -4.36; that for C20A U32G G35C U59G G61A A74C, -4.63.
The value for U92G C104G was -7.29.
In the case of A27U C85A C86A C101G, the “polymerase ribozyme fitness (log ratio)” value was -5.15.
The result for A16G G47A reads -2.15.
The value for G19U C76A C85U C124G was -3.5; that for A66U C98U was -1.9.
The result for C11U C70U C101A G128C reads -4.09.
U9C C56G G60A C88G: the “polymerase ribozyme fitness (log ratio)” value is -3.64.
In the case of U38C G45A U54A A83C G120U, the “polymerase ribozyme fitness (log ratio)” value is -0.856.
Turning to C12A C15U G48C U92C U96A G122A, the “polymerase ribozyme fitness (log ratio)” value was -4.12.
The value for C20A A24U U54A C115G was -6.69; that for C4A G61U A105U was -4.13; that for G45C G57C U59A G120A was -0.07.
The result for C8G C40A C70G C114A reads -5.85.
The value for U38G G47C C114A was -5.64; that for A16C C72A G110U was -3.99.
As to G25U C72U C88A U109C A119U C123U, the “polymerase ribozyme fitness (log ratio)” value is -8.09.
With C12U C15G G71C G127C, the “polymerase ribozyme fitness (log ratio)” value was -4.84.
The value for C70U U96G was -1.09.
The result for G23A C72U reads -5.21; that for C13G C56A G63A, -3.78.
The value for G10U C20A A84U U131C was -2.84.
Turning to G60C U81A A83C, the “polymerase ribozyme fitness (log ratio)” value was -3.92.
Turning to G51C C56A G77U U78A, the “polymerase ribozyme fitness (log ratio)” value is -3.51.
Regarding C3A C8A C12A G61A, the “polymerase ribozyme fitness (log ratio)” value was -1.5.
The value for A26U G120U was -3.12.
The result for A29G G63C C104U U106G reads -1.63; that for C3U U112A, 0.197; that for G45U A46C A91C, -2.71.
With C20A U38A G48A C104A A121U, the “polymerase ribozyme fitness (log ratio)” value is -6.26.
The result for C28U C101G reads -5.15; that for C13G G57C C73A G110A, -2.44; that for C15U G69U U78C, -0.901.
As to A18C C53U C70U, the “polymerase ribozyme fitness (log ratio)” value is -4.83.
The result for U7G G47U G113C reads -2.84; that for C20U G42A U106A G113C, -2.24.
The value for G52U C73G A84U was -1.78; that for C31A A121U was -3.46; that for A5C U81A was -1.65.
The result for C11G C70U reads 0.101; that for C53A C56A G58C A68U C80A, -6.56.
Turning to U21C C70U, the “polymerase ribozyme fitness (log ratio)” value is -0.476.
The value for C49A G63A was -0.725.
The result for C101A G117U G122A U125A reads -4.5.
The result for A5U U7A C40G U55G C56U G60A U130C reads -1.94.
With C20G U78C U109G, the “polymerase ribozyme fitness (log ratio)” value is -3.79.
The result for A100U A111G reads 0.222.
The result for C8G G71A C72A C102A reads -3.77; that for A41U C64U, -1.24; that for C82A C94A C104A, -3.13.
Take C13A A18C: the “polymerase ribozyme fitness (log ratio)” value was -4.69.
The value for G61C C85U U116A C123U U129A was -6.64; that for C76A U78A U96A was -1.43; that for A16U A24G C115G was -6.98.
The value for C49A U92C was -1.43.
In the case of A2U C13A C73G, the “polymerase ribozyme fitness (log ratio)” value is -5.15.
The result for G48A C85G reads -2.75; that for G52A C70U G77A U78G C79U G117U, -3.69.
The value for C13A G63U U112C was -1.77; that for C49G C115G G135U was -3.4.
With C13A G63A G77U U106A C114A, the “polymerase ribozyme fitness (log ratio)” value is -6.33.
With U7C C11G C82U, the “polymerase ribozyme fitness (log ratio)” value amounted to 0.131.
The result for G45C G48C reads -2.05.
The value for A18G U78C was -2.98.
Regarding G60A C102A G120C U132C, the “polymerase ribozyme fitness (log ratio)” value was -1.03.
On to C49A C72U, for which the “polymerase ribozyme fitness (log ratio)” value is -1.37.
The value for G42U U106A was -1.56; that for C13U C34U C40U A50G U59C was -5.78; that for C53A C70U U78C C86G was -1.12.
The result for C11A G52C U54C C94U G120C reads 0.0193.
The result for C3U G117U reads -2.69; that for C56A C70G, -3.6; that for U54A C76U, -0.995.
For C28A U54C U106C, the “polymerase ribozyme fitness (log ratio)” value is -5.05.
The result for U106G G110C U112C reads -5.6; that for C12A C40U C99U, -4.15; that for A2U C53G C88G, -3.42.
The result for G61U A105U reads -1.36.
The value for C40A G45A was -2.54; that for G61U U106A U116C was -0.163; that for G60U A91U A121U was 0.38.
For the variant G35A G113A, the “polymerase ribozyme fitness (log ratio)” value is -4.16.
The result for C8U C15A A66U A118U A121C reads -0.152; that for C72G U132A, -0.151; that for C20U C28A, -3.79.
The value for A18U G69C C85A C89G was -6.03.
The result for U32A G48A C62U C97U A100U reads -7.37; that for U59A A95U G128A, -2.84; that for C4G U14A C73G G120A, -3.16.
Take A29U C88U: the “polymerase ribozyme fitness (log ratio)” value is -1.36.
The result for U59A C123G reads 2; that for C13G A43U C76U C123G, -0.345; that for G61C C94G, -2.92.
The value for A6C C53G G69U was 0.253.
Turning to G52U A66U, the “polymerase ribozyme fitness (log ratio)” value is -1.95.
The result for C53G C70U reads -1.16.
The result for G57U G93A reads 0.0639.
With C8U C20U A37U A43U C72U A74U, the “polymerase ribozyme fitness (log ratio)” value was -2.39.
The result for C20U U96A U130G reads -4.47.
The value for A18G A74C C97A U106A was -6.31.
The value for A29C G61A A75U was -1.75; that for G19A G60A C114A was -1.62.
On to C15A C76U C79A C104A C123A, for which the “polymerase ribozyme fitness (log ratio)” value was -4.6.
The result for C8A C15U G47C G63A C98A C114U G117A U129G reads -7.35.
The result for G17U G63U C73U reads -4.41; that for A27G C56U U96A U109G C115G C124U, -7.02; that for C3U C53G C88A U112G U129A, -2.53.
On to C56A C115U, for which the “polymerase ribozyme fitness (log ratio)” value was -1.67.
The result for C3A G44U G63C reads -3.25; that for G10U G48U G93A C123G, 0.384; that for C15G A43U C56U, -3.19.
Turning to C4U C13G C56G C72U C73A, the “polymerase ribozyme fitness (log ratio)” value was -5.32.
The result for C115U U131A reads -0.58.
The value for C73G C123A was 0.232.
The result for C15U C56U G117C reads -1.61; that for U7A C70U C115A, 0.524.
For G19U A41U G71A, the “polymerase ribozyme fitness (log ratio)” value was -5.44.
Turning to C13U U129A, the “polymerase ribozyme fitness (log ratio)” value was -0.61.
The value for C28A C72A C123G U126C was -2; that for A41C G69U C82U A105U C123A was -1.3.
The result for C4U A37G A50C C82A reads -1.39; that for C3U G23A G39U G48C A68G C99U C114A, -5.71; that for A43G A50U, -3.81.
The value for U21A G60A A90G was -0.182; that for C13U U112A C123A G128C was -1.12; that for C34G C40U was -6.15.
As to A2U U32C G48A C49G C64U, the “polymerase ribozyme fitness (log ratio)” value was -3.23.
The result for C11U G39C reads -1.05; that for G36C G48A G60C G61C, -3.64; that for A16U G47U G60U U112G, -1.75.
The value for C53A C72G U92G was -2.94.
The value for C62G A105G was -4.99.
For the variant G48A C89U C124U, the “polymerase ribozyme fitness (log ratio)” value stood at 0.551.
The result for G71C U78G reads -3.19; that for C8G C56A G77A, -0.27.
The result for C3G G17A G120C reads -5.46; that for U7C U14G G48U C70G, -5.7; that for G45U C62U G107U U116C, -5.58.
The result for G48U A50G G61A C89U reads -1.81; that for A2U U14G U106G G120A C124G, -3.26.
As to U33A C53A C62U, the “polymerase ribozyme fitness (log ratio)” value is -5.53.
The result for A29G C49G G57C A121C reads -0.725; that for G63C G128C, -3.04; that for C12U A100U, -0.242.
The result for A26C U106A reads -3.34; that for C20U G42U C73U, -2.41.
The value for C40U A43C C64U G93C C115A was -2.31.
For A29U A46C, the “polymerase ribozyme fitness (log ratio)” value was -3.27.
In the case of G44C A74U, the “polymerase ribozyme fitness (log ratio)” value is -1.2.
The value for C11U C15A G39C G61C C114A was -5.39.
The value for A6C G47A C86U U133G was -0.584.
The result for A2U G60A A91G C124U reads -3.61.
Consider A27G C28U C56U U81A A83U A121C, for which the “polymerase ribozyme fitness (log ratio)” value is -3.5.
The result for G10U G71A A103U C114U reads -4.96; that for G48C C49U U106G, -2.77.
Take G48C U87A: the “polymerase ribozyme fitness (log ratio)” value was -1.01.
